B1: PPFIA4 (parent)
chain: YAGNLHESGVHGALLALDENFDHN

Variants of: B1
Assay: protein stability index of a GFP-peptide fusion (GPS, HEK-293T) (PSI 1-6); higher = more stable
Conditions: c terminus: a fixed tail appended
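Note: lentivirally expressed fusions sorted by FACS into six bins by GFP to DsRed ratio, PSI derived from sequencing read proportions per bin multiplied by bin number.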

Variant	protein stability index
YAGNLHESCVHGALLALDENFDHN [G9C]	2.05
YAGNLEESGVHGALLALDENFDHN [H6E]	3.7
YAGNLAESGVHGALLALDENFDHN [H6A]	2.78
YAGNLNESGVHGALLALDENFDHN [H6N]	2.05
YAGNLGESGVHGALLALDENFDHN [H6G]	2.82
YAGNLCESGVHGALLALDENFDHN [H6C]	2.92
YAGNLSESGVHGALLALDENFDHN [H6S]	2.27
YAGNLRESGVHGALLALDENFDHN [H6R]	1.92
YAGNLKESGVHGALLALDENFDHN [H6K]	2.24
YAGNLDESGVHGALLALDENFDHN [H6D]	2.72
YAGNLTESGVHGALLALDENFDHN [H6T]	2.83
YAGNLVESGVHGALLALDENFDHN [H6V]	2.5
YAGNLLESGVHGALLALDENFDHN [H6L]	2.01
YAGNLIESGVHGALLALDENFDHN [H6I]	2.23
YAGNLMESGVHGALLALDENFDHN [H6M]	2.09
YAGNLPESGVHGALLALDENFDHN [H6P]	2.98
YAGNLYESGVHGALLALDENFDHN [H6Y]	1.88
YAGNLQESGVHGALLALDENFDHN [H6Q]	2.19
YAGNLFESGVHGALLALDENFDHN [H6F]	1.99
YAGNLHESGVHDALLALDENFDHN [G12D]	3.74
YAGNLHESGVHAALLALDENFDHN [G12A]	2.77
YAGNLHESGVHCALLALDENFDHN [G12C]	2.13
YPGNLHESGVHGALLALDENFDHN [A2P]	3.96
YRGNLHESGVHGALLALDENFDHN [A2R]	4.27

Variant	protein stability index
YHGNLHESGVHGALLALDENFDHN [A2H]	1.85
YMGNLHESGVHGALLALDENFDHN [A2M]	3.23
YWGNLHESGVHGALLALDENFDHN [A2W]	3.26
YSGNLHESGVHGALLALDENFDHN [A2S]	3.31
YVGNLHESGVHGALLALDENFDHN [A2V]	1.45
YIGNLHESGVHGALLALDENFDHN [A2I]	2.12
YYGNLHESGVHGALLALDENFDHN [A2Y]	3.07
YLGNLHESGVHGALLALDENFDHN [A2L]	3.65
YQGNLHESGVHGALLALDENFDHN [A2Q]	3.23
YNGNLHESGVHGALLALDENFDHN [A2N]	4.32
YGGNLHESGVHGALLALDENFDHN [A2G]	3.49
YTGNLHESGVHGALLALDENFDHN [A2T]	3.09
YKGNLHESGVHGALLALDENFDHN [A2K]	4.68
YAGNLHEMGVHGALLALDENFDHN [S8M]	2.19
YAGNLHEDGVHGALLALDENFDHN [S8D]	3.16
YAGNLHEKGVHGALLALDENFDHN [S8K]	2.67
YAGNLHEFGVHGALLALDENFDHN [S8F]	1.72
YAGNLHEIGVHGALLALDENFDHN [S8I]	2.21
YAGNLHETGVHGALLALDENFDHN [S8T]	3.26
YAGNLHENGVHGALLALDENFDHN [S8N]	2.33
YAGNLHEEGVHGALLALDENFDHN [S8E]	3.28
YAGNLHEVGVHGALLALDENFDHN [S8V]	2.48
YAGNLHELGVHGALLALDENFDHN [S8L]	1.97
YAGNLHERGVHGALLALDENFDHN [S8R]	2.02

Variant	protein stability index
YAGNLHEHGVHGALLALDENFDHN [S8H]	2.11
YAGNLHEQGVHGALLALDENFDHN [S8Q]	2.71
YAGNLHEGGVHGALLALDENFDHN [S8G]	2.12
YAGNLHEYGVHGALLALDENFDHN [S8Y]	2.28
YAGNLHEAGVHGALLALDENFDHN [S8A]	2.51
YAGNLHECGVHGALLALDENFDHN [S8C]	2.39
YAGNLHEPGVHGALLALDENFDHN [S8P]	2.49
YAGNLHEWGVHGALLALDENFDHN [S8W]	1.72
YAGNLHESGVMGALLALDENFDHN [H11M]	1.87
YAGNLHESGVIGALLALDENFDHN [H11I]	1.66
YAGNLHESGVEGALLALDENFDHN [H11E]	3.19
YAGNLHESGVAGALLALDENFDHN [H11A]	3.06
YAGNLHESGVFGALLALDENFDHN [H11F]	2.49
YAGNLHESGVDGALLALDENFDHN [H11D]	4.25
YAGNLHESGVGGALLALDENFDHN [H11G]	3.35
YAGNLHESGVNGALLALDENFDHN [H11N]	2.83
YAGNLHESGVWGALLALDENFDHN [H11W]	3.06
YAGNLHESGVYGALLALDENFDHN [H11Y]	2.35
YAGNLHESGVSGALLALDENFDHN [H11S]	2.9
YAGNLHESGVVGALLALDENFDHN [H11V]	1.88
YAGNLHESGVLGALLALDENFDHN [H11L]	1.76
YAGNLHESGVTGALLALDENFDHN [H11T]	2.59
YAGNLHESGVKGALLALDENFDHN [H11K]	3.33
YAGNLHESGVCGALLALDENFDHN [H11C]	1.22

Variant	protein stability index
YAGNLHESGVRGALLALDENFDHN [H11R]	2.46
YAGNLHESGVPGALLALDENFDHN [H11P]	2.57
YAGNLHESGVQGALLALDENFDHN [H11Q]	3.59
YAGLLHESGVHGALLALDENFDHN [N4L]	2.33
YAGHLHESGVHGALLALDENFDHN [N4H]	2.73
YAGILHESGVHGALLALDENFDHN [N4I]	2.53
YAGWLHESGVHGALLALDENFDHN [N4W]	1.67
YAGYLHESGVHGALLALDENFDHN [N4Y]	2.2
YAGDLHESGVHGALLALDENFDHN [N4D]	3.55
YAGRLHESGVHGALLALDENFDHN [N4R]	1.93
YAGTLHESGVHGALLALDENFDHN [N4T]	2.23
YAGALHESGVHGALLALDENFDHN [N4A]	2.48
YAGCLHESGVHGALLALDENFDHN [N4C]	2.03
YAGELHESGVHGALLALDENFDHN [N4E]	3.82
YAGQLHESGVHGALLALDENFDHN [N4Q]	3.69
YAGMLHESGVHGALLALDENFDHN [N4M]	2.29
YAGPLHESGVHGALLALDENFDHN [N4P]	2.77
YAGFLHESGVHGALLALDENFDHN [N4F]	1.75
YAGGLHESGVHGALLALDENFDHN [N4G]	2.65
YAGVLHESGVHGALLALDENFDHN [N4V]	2.18
YAGSLHESGVHGALLALDENFDHN [N4S]	1.87
YAGKLHESGVHGALLALDENFDHN [N4K]	2.09
